In general, Kd refers to the constant that tells how readily two partners part at equilibrium. The term koff denotes the rate constant with which the complex falls apart. The term kon denotes a measure of how fast the partners come together.

Residue numbers refer to the chain shown, from its start.

Results on 17 molecules are retold here after patent US20250277045A1 (KEYMED BIOSCIENCES, published 2025).

B1: h38E2-CD3 (bispecific antibody, V domains shown)
VH 1: QVQLVQSGAEVKKPGSSVKVSCKASGYTFTNYWIGWVREAPGQGLEWMGDIYPGSGDTNYNGKFQGRVTLTADISSNTAYMELSSLRSEDTAVYYCARSYYRNDAASFAYWGQGTLVTVSS
VL 1: DIQMTQSPSSLSASVGDRVTITCQASQDVDTAVAWYQKKPGKAPKLLIYWTSTRHTGVPSRFSGSGSGTDFTFTISSLQPEDIATYFCQQFSSYPLTFGQGTKVEIK
VH 2: EVQLVESGGGLVQPGGSLRLSCAASGFTFNTYAMNWVRKAPGKGLEWVGRIRSKYNNYATYYADSVKDRFTISRDDSKNSLYLQMNSLKTEDTAVYYCVRHGNFGNSYVSWFAYWGQGTLVTVSS
VL 2: QAVVTQEPSLTVSPGGTVTLTCRSSTGAVTTSNYANWVQEKPGQAPRGLIGGTNKRAPWTPARFSGSLLGGKAALTITGAQAEDEAEYYCVLWYSNLWVFGGGTKLTVL
B2: h23F8-CD3 (bispecific antibody, V domains shown)
VH 1: QVQLVQSGSELKKPGASVKVSCKASGYTFTNFGMNWVREAPGQGLEWMGWINTYTGDQIYADDFKGRFAFSLDTSASTAYLQISSLKAEDTAVYFCARGEIYYGYDVGFVYWGQGTLVTVSS
VL 1: DIVLTQSPASLAVSPGQRATITCRASKSVSTSGYSYMHWYQKKPGQPPKLLIYLASNLESGVPARFSGSGSGTDFTLTINPVEANDTANYYCQHSRELPWTFGQGTKVEIK
VH 2: B1 VH 2
VL 2: B1 VL 2
B3: h38D9-CD3 (bispecific antibody, V domains shown)
VH 1: B2 VH 1 with T28I, D57E
VL 1: B2 VL 1 with A55G, N57D
VH 2: B1 VH 2
VL 2: B1 VL 2
B4: h40C6-CD3 (bispecific antibody, V domains shown)
VH 1: B2 VH 1 with T28I, D57E
VL 1: B2 VL 1 with K27R, S30T, M37I, N57D, S60A
VH 2: B1 VH 2
VL 2: B1 VL 2
B5: 29A11 Fab (Fab, V domains shown)
VH: EIQLVQSGPELKKPGETVKISCKASGYIFTNFGMNWVRQAPGKALKWMGWINTYTGEQIYADDFKGRFAFSLETSASTAYLQINNLKNEDTATYFCARGEIYYGYDVGFVYWGQGTLVTVSA
VL: DIVLTQSPASLAVSLGQRATISCRASKSVSTSGYSYMHWYQQKPGQPPKLLIYLASNLESGVPARFSGSGSGTDFTLNIHPVEEEDAATYYCQHSRELPWTFGGGTKLEIK
notes: Murine BCMA Fab, Ni-NTA purified
B6: 38F9 Fab (Fab, V domains shown)
VH: B5 VH
VL: NIVLTQSPASLAVSLGQRATISCRASESVDSSGNSFMHWYQQKPGQPPKLLIYLESNLESGVPARFSGSGSRTDFTLTIEPVEADDAATYYCQQSNEDPWTFGGGTKLEIK
notes: as for B5
B7: 23F8 Fab (Fab, V domains shown)
VH: B5 VH with K23T, I28T, K46R, E57D
VL: B5 VL
notes: as for B5
B8: 3G11 Fab (Fab, V domains shown)
VH: B5 VH
VL: B5 VL with A12T, N57D, P63S
notes: Murine BCMA Fab from phage library, expressed in TG1 periplasm, purified by Ni-NTA
B9: 15H10 Fab (Fab, V domains shown)
VH: B5 VH with I2V, V5Q, I28T, A40T, E57D, Q58L, A61G, V110A
VL: B5 VL
notes: as for B5
B10: 16B9 Fab (Fab, V domains shown)
VH: B5 VH with A40T, Q58T, R67L, T74V, S75P, Y105F, V110A
VL: B5 VL with A12T, M37I, N57D, I110L
notes: as for B5
B11: 6G5 Fab (Fab, V domains shown)
VH: B5 VH
VL: B5 VL with V13I, S30T, M37I, N57D, S60A, I110L
notes: as for B5
B12: 38D9 Fab (Fab, V domains shown)
VH: B5 VH with I2V, V5Q
VL: B5 VL with A12T, R24G, A55G, N57D
notes: as for B5
B13: 34G2 Fab (Fab, V domains shown)
VH: B5 VH with I2V, V5Q, K12R, I28T, F32Y, R38K, A40T, A44G, Q58R
VL: B5 VL with A12V, K107R
notes: as for B5
B14: 40C6 Fab (Fab, V domains shown)
VH: B5 VH
VL: B5 VL with V13I, K27R, S30T, M37I, N57D, S60A
notes: as for B5
B15: 38E2 Fab (Fab, V domains shown)
VH: QVQLQQSGAELVRPGTSVKMSCKAAGYTFTNYWIGWVKQRPGHGLEWIGDIYPGSGDTNYNGKFKGKATLAADISSNAAYMQLSSLTSEDSAIYYCARSYYRNDAASFAYWGQGTLVTVSA
VL: DIVMTQSHKFMSTSVGDRVNITCKASQDVDTAVAWYQQKPSQSPKLLIYWTSTRHTGVPDRFTGSGSGTDFTLTISNVQSEDLADYFCQQFSSYPLTFGAGTKLELK
notes: as for B5
B16: 23G9 Fab (Fab, V domains shown)
VH: EVQLQQSGTVLTRPGASVKLSCKASGYSFSSYWMHWLKQRPGQGLEWIGAIYPGNSRTTYNQKFKGEAKLTADTSASTAYMDLSSLTNADSAVYFCTREETYWGQGTLVTVSA
VL: DVVMTQTPLSLSVTIGQPASISCKSSQGLLDSYGVTYLNWLFQRPGQPPKRLIYLVSELDSGVPDRFTGSGSGTDFTLRISRVEAEDLGIYYCWQGSHFPLTFGAGTKLELK
notes: as for B5
B17: 15G9 Fab (Fab, V domains shown)
VH: QVQLQQSGPELVKPGASVNLSCKASGYTFTNYVIHWVKQKPGQGLEWIGYTIPYTDVTKYNEKFKAKATLTSDKSSSTAFMELSSLTSEDSAVYYCARYDFDGYFDYWGQGTTLTVSS
VL: DIVMTQAAFSNPVTLGTSASISCRSSKSLLHSNGITYLYWYLQKPGQSPQLLIYQMSNLASGVPDRFSSSGSGTDFTLRISRVEAEDVGVYYCAQNLELPWTFGGGTKLELK
notes: as for B5
For Upregulation of CD25 (%), CD4+T in this document: test concentration or dose not given here.
For Upregulation of CD25 (%), CD8+T in this document: test concentration or dose not given here.
For Upregulation of CD69 (%), CD4+T in this document: test concentration or dose not given here.
For Upregulation of CD69 (%), CD8+T in this document: test concentration or dose not given here.

For one test, the target named is human CD3 on T cells (Jurkat cells; human peripheral blood CD4+ and CD8+ T cells) (human, UniProt P07766 23-207). The experiment in a line: cell-based or functional assay.
human CD3 on T cells (Jurkat cells; human peripheral blood CD4+ and CD8+ T cells), sequence (P07766 23-207): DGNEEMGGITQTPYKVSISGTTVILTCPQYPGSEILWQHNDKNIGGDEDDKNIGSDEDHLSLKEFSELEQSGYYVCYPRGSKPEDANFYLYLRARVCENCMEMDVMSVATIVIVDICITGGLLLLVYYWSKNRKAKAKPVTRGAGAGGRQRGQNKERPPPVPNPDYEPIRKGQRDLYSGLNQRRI
As to B1, the “Upregulation of CD25 (%), CD4+T” value was 29%; the “Upregulation of CD25 (%), CD8+T” value came to 38%; the “Upregulation of CD25 EC50, CD4+T” value came to 3.65 nM; the “Upregulation of CD25 EC50, CD8+T” value came to 3.65 nM. In addition, the “Upregulation of CD69 (%), CD4+T” value stood at 55%; the “Upregulation of CD69 (%), CD8+T” value stood at 69%; the “Upregulation of CD69 EC50, CD4+T” value was 7.4 nM; the “Upregulation of CD69 EC50, CD8+T” value came to 2.32 nM.
Consider B2, for which the “Upregulation of CD25 (%), CD4+T” value turned out to be 25%; the “Upregulation of CD25 (%), CD8+T” value is 34%; the “Upregulation of CD25 EC50, CD4+T” value came to 0.57 nM; the “Upregulation of CD25 EC50, CD8+T” value is 0.79 nM. For the same molecule, the “Upregulation of CD69 (%), CD4+T” value is 41%; the “Upregulation of CD69 (%), CD8+T” value came to 59%; the “Upregulation of CD69 EC50, CD4+T” value turned out to be 0.44 nM; the “Upregulation of CD69 EC50, CD8+T” value stood at 0.49 nM.
For the molecule B3, the “Upregulation of CD25 (%), CD4+T” value worked out at 29%; the “Upregulation of CD25 (%), CD8+T” value came to 35%; the “Upregulation of CD25 EC50, CD4+T” value came to 0.77 nM; the “Upregulation of CD25 EC50, CD8+T” value is 1.75 nM. Also, the “Upregulation of CD69 (%), CD4+T” value worked out at 57%; the “Upregulation of CD69 (%), CD8+T” value worked out at 52%; the “Upregulation of CD69 EC50, CD4+T” value was 0.52 nM; the “Upregulation of CD69 EC50, CD8+T” value was 0.37 nM.
As for B4, the “Upregulation of CD25 (%), CD4+T” value amounted to 25%; the “Upregulation of CD25 (%), CD8+T” value is 28%; the “Upregulation of CD25 EC50, CD4+T” value worked out at 0.45 nM; the “Upregulation of CD25 EC50, CD8+T” value worked out at 0.49 nM. Moreover, the “Upregulation of CD69 (%), CD4+T” value was found to be 37%; the “Upregulation of CD69 (%), CD8+T” value worked out at 44%; the “Upregulation of CD69 EC50, CD4+T” value stood at 0.63 nM; the “Upregulation of CD69 EC50, CD8+T” value is 0.21 nM.

In the next test the target is T1, human BCMA on cells (CHO-hBCMA clone 2C2; NCI-H929; RPMI-8226) (human, UniProt Q02223 1-184).
T1 sequence (looked up): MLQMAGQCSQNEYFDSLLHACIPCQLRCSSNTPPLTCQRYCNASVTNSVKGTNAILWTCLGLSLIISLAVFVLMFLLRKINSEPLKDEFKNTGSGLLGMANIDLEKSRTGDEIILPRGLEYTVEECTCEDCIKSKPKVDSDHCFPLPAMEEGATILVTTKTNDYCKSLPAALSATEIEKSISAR
The experiment in a line: cell-based or functional assay.
On to B1, for which the “Killing EC50 (TDCC, LDH release; PBMC + RPMI-8226)” value (from here on “Killing EC50”) was 13.6 nM.
Regarding B2, the “Killing EC50” value was 0.81 nM.
Turning to B3, the “Killing EC50” value stood at 1.04 nM.
The same measure, in the same setting: for B4 the value was 1.12 nM.

In a further test the target is T2, human BCMA-hFc kih monovalent recombinant protein (human, UniProt P0DOX5 223-449 = IgG part).
T2 construct: Knob-into-hole heterodimer with one BCMA arm, expressed in HEK293E; also called human BCMA-hFc recombinant protein
The experiment in a line: SPR (Biacore T200), BCMA-hFc captured on Protein A chip, Fab as analyte, 1:1 Langmuir. An excerpt: Kinetic constants were fitted using Biacore T200 evaluation software with a Langmuir 1:1 kinetics model.
On the technique in general: Surface plasmon resonance follows binding to a sensor surface in real time, without labels.
B5: the Kd was found to be 3.2 nM, the koff is 0.000243 s⁻¹ and the kon turned out to be 76400 M⁻¹ s⁻¹.
For B6, in that order: 344 nM, 0.002 s⁻¹ and 5810 M⁻¹ s⁻¹.
On to B7, for which the Kd was 5.6 nM, the koff was 0.000322 s⁻¹ and the kon was determined as 57700 M⁻¹ s⁻¹.
For B8, in that order: 13 nM, 0.000432 s⁻¹ and 33300 M⁻¹ s⁻¹.
For B9, in that order: 18.3 nM, 0.00069 s⁻¹ and 37800 M⁻¹ s⁻¹.
For B10, in that order: 4.1 nM, 0.000476 s⁻¹ and 117000 M⁻¹ s⁻¹.
As to B11, the Kd stood at 2.1 nM, the koff is 6.13e-05 s⁻¹ and the kon was 29400 M⁻¹ s⁻¹.
As for B12, the equilibrium dissociation constant (Kd) was 5.6 nM, the koff worked out at 0.000329 s⁻¹ and the kon turned out to be 59100 M⁻¹ s⁻¹.
For B13, in that order: 5 nM, 0.000705 s⁻¹ and 142000 M⁻¹ s⁻¹.
For B14, in that order: 6.4 nM, 0.000271 s⁻¹ and 42100 M⁻¹ s⁻¹.
For B15, in that order: 8.1 nM, 0.000798 s⁻¹ and 98800 M⁻¹ s⁻¹.
Take B16: the equilibrium dissociation constant (Kd) worked out at 76.9 nM, the koff worked out at 0.000313 s⁻¹ and the kon was found to be 4070 M⁻¹ s⁻¹.
With B17, the Kd stood at 12.2 nM, the koff turned out to be 0.0126 s⁻¹ and the kon was 1.03e+06 M⁻¹ s⁻¹.
